Laboratory results from patent US20240425587A1 (Alector, published 2024).

How the values were obtained:
[1] = target: T1, murine PILRA, ectopically expressed on 293 cells (murine, UniProt Q2YFS3 32-302); experiment: flow cytometry, 293 cells expressing target
T1 construct: also called mA
Procedure: (§1) Briefly, conditioned media containing antibodies were incubated with 293 cells for 30 min at 4° C., washed twice, and then detected with anti-mouse IgG Alexa 647.

[2] = target: cynomolgus PILRA, ectopically expressed on 293 cells (cynomolgus monkey); experiment: flow cytometry, 293 cells expressing target
Procedure: as §1

[3] = target: T2, human PILRA, G78 variant, ectopically expressed on 293 cells (human, UniProt Q9UKJ1 20-303); experiment: flow cytometry, 293 cells expressing target
T2 construct: the cells are labelled G78; also called hA G78 OE; hA
Procedure: as §1

[4] = target: T3, murine PILRB, ectopically expressed on 293 cells (murine, UniProt Q2YFS2 29-224); experiment: flow cytometry, 293 cells expressing target
T3 construct: whole, on cells; also called mB
Procedure: as §1

[5] = target: T4, human PILRB, ectopically expressed on 293 cells (human, UniProt Q9UKJ0 20-227); experiment: flow cytometry, 293 cells expressing target
T4 construct: also called hB
Procedure: as §1

[6] = target: T2, human PILRA, G78 variant, ectopically …; experiment: flow cytometry; blocking of NPDC1-hIgG1 binding to 293 cells expressing human PILRA G78
[7] = target: T5, human PILRA, c-term His-Avi tag (human, UniProt Q9UKJ1 20-197, limits assumed); experiment: SPR (Biacore), antibody captured, PILRA as analyte
T5 construct: not shown: C-terminal His-Avi tag
Procedure: Experiments were performed to determine the kinetics of anti-PILRA antibody binding to human […]. The assay is depicted in FIG. 6. A rabbit anti-PILRA was used as a positive control, and H1 LALAPS was used as a negative control. Human PILRA (human PILRA, c-term His-Avi tag, 0.68 mg/mi) was used as the antigen. The running buffer was HBSTE/0.5% BSA, pH 7.4, and the regeneration solution was 10 mM glycine-HCl (pH 2.1). In the assay, antibodies were captured at 10 μg/ml by immobilized anti-huFc or anti-msFc on a Biacore CM5 chip, and human PILRA flowed at 33, 100, and 300 nM. The surface was regenerated after each analyte, and all curves were double-referenced with buffer injections.

T4 sequence (Q9UKJ0 20-227): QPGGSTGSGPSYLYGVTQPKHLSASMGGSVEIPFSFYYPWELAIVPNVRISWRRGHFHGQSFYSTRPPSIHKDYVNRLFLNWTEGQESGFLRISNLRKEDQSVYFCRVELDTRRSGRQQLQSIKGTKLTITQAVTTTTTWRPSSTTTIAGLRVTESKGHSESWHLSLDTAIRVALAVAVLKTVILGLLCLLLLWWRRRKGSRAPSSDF
T2 sequence (Q9UKJ1 other isoform, or with tags, fused parts or gaps mutant): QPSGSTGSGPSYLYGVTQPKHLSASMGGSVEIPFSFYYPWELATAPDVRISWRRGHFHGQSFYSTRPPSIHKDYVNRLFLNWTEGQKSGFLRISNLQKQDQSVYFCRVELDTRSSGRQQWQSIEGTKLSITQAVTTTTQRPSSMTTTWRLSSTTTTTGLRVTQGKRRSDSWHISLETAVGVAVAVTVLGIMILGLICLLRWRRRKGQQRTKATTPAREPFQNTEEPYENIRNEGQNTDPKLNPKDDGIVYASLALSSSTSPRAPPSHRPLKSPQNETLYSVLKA
T3 sequence (Q2YFS2 29-224): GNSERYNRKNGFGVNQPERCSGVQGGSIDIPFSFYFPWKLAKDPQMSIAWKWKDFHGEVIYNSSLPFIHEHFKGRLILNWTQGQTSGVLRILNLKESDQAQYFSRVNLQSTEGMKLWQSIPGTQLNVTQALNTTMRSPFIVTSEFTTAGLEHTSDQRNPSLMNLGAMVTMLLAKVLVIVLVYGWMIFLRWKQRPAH
T5 sequence (Q9UKJ1 20-197 limits assumed): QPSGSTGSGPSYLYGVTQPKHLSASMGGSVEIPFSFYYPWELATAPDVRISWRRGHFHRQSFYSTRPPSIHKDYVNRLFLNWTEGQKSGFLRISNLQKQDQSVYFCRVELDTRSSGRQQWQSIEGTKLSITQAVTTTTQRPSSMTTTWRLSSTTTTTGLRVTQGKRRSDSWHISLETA
cynomolgus PILRA, ectopically expressed on 293 cells (cynomolgus monkey), sequence (chain, as listed by the source): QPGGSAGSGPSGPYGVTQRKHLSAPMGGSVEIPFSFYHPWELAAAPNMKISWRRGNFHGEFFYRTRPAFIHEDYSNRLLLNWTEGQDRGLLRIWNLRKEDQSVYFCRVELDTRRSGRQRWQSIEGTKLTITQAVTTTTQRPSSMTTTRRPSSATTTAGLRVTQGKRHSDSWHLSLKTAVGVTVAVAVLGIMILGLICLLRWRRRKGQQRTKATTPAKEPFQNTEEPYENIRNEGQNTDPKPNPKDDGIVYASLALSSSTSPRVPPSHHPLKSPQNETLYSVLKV
T1 sequence (Q2YFS3 32-302): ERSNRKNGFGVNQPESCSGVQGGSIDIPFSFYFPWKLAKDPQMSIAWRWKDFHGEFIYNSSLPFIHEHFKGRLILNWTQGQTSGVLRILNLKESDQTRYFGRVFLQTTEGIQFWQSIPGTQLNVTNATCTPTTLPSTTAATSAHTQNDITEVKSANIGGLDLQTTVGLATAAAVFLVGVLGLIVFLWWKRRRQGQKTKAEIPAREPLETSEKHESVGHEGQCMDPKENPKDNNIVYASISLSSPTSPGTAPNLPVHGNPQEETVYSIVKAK

Row | Binder | binding result [1] | EC50 [2] [µg/mL] | EC50 [3] [µg/mL] | binding result [4] | binding result [5] | IC50 [6] [µg/mL] | Kd [7] [nM] | koff [7] [s⁻¹] | kon [7] [M⁻¹ s⁻¹] | binding result [2] | EC50 [5] [µg/mL] | t½ [7] [min]
1 | A5 (antibody, V domains shown, phage campaign) VH: QVQLVQSGAEVKKPGSSVKVSCKASGYTFTDYYMNWVRQAPGQGLEWMGGIIPIFGTADYAQRFQGRVTITADESTSTAYMELSSLRSEDTAVYYCARDAGYYGMDVWGQGTLVTVSS VL: EIVMTQSPATLSVSPGERATLSCRASQSVSNYLAWYQQKPGQAPRLLIYGASTRATGIPARFSGSGSGTEFTLTISSLQSEDFAVYYCQQFDDLPLTFGPGTKVEIK | no binding | 2.8 | 3.4 | no binding | no binding | 0.64 | 32.1 | 0.0045 | 140000 |  |  | 
2 | A2 (antibody, V domains shown, phage campaign) VH: EVQLLESGGGLVKPGGSLRLSCAASGFTFSDYYMSWVRQAPGKGLEWVSSISIGGGGTYYADSVKGRFTISRDDSKNTLYLQMNSLRAEDTAVYYCASHGFGARKMDFWGQGTTVTVSS VL: DIQMTQSPSSLSASVGDRVTITCRASQSIRSYVNWYQQKPGKAPKLLIYDASNLETGVPSRFSGSGSGTDFTLTISSLQPEDFATYYCQQSYSPPITFGQGTKVEIK | no binding |  | 0.3 | no binding |  | 0.78 | 193 | 0.0063 | 33000 | no binding |  | 
3 | A14 (antibody, V domains shown, phage campaign) VH: QVQLVQSGAEVKKPGASVKVSCKASGYTFTSYYMYWVRQAPGQGLEWMGWMNPNSGNTGFAQKFQGRVTMTRDTSTSTVYMELSSLRSEDTAVYYCASGYYDSWSGETDYGMDVWGQGTTVTVSS VL: DIQMTQSPSSLSASVGDRVTITCRASQSISSYLNWYQQKPGKAPKLLIYDASTLESGVPSRFSGSGSGTDFTLTISSLQPEDFATYYCQQSYKTPYTFGQGTKLEIK | no binding | 11.5 | 0.5 | no binding |  |  | 12.2 | 0.0012 | 99000 |  | 12.9 | 9.6
4 | A3 (antibody, V domains shown, phage campaign) VH: EVQLLESGGGLVQPGGSLRLSCAASGFTFSRYEMNWVRQAPGKGLEWVAGISYDGSYEYYADSVKGRFTISRDNSKNTLYLQMNSLRAEDTAVYYCAKGSYGYDAFDIWGQGTMVTVSS VL: DIQMTQSPSSLSASVGDRVTITCRASQSISSWLAWYQQKPGKAPKLLIYATSTLQSGVPSRFSGSGSGTDFTLTISSLQPEDFATYYCQQSYSPPYTFGQGTKVEIK | no binding |  | 0.1 | no binding | no binding | 0.38 | 93.7 | 0.0067 | 71000 | no binding |  | 
5 | E15 (antibody, V domains shown, B-cell cloning campaign (mice)) VH: QVQLQQSGAELVKPGASVKLSCKASGNTFTIYDINWVRQRPEQGLEWIGWIFPGDGSTKYNGKFKGKATLTTDKSSSTAYMQLSRLTSEDSAVYFCARRAHYYGSSFDYWGQGTTLTVSS VL: DIQMTQSSSYLSVSLGGRVTITCKASDHINNWLAWYQQKPGNGPRLLISGAISLEIGVPSRFSGSGSGKEYTLSITSLQTEDVATYYCQQYWSPPWTFGGGTKLEIK | no binding | 14.6 | 4.73 | no binding |  |  | 31.3 | 0.0017 | 53000 |  | 16.4 | 6.9
6 | A6 (antibody, V domains shown, phage campaign) VH: QVQLVQSGAEVKKPGSSVKVSCKASGYTFINYDINWVRQAPGQGLEWMGGIIPIFGAPVYAQDFQGRVTITADESTSTAYMELSSLRSEDTAVYYCAIADGAGWFDPWGQGTLVTVSS VL: not shown | no binding | 0.3 | 1.7 | no binding | no binding | 5.7 | 86.5 | 0.0052 | 61000 |  |  | 
7 | A7 (antibody, V domains shown, phage campaign) VH: QVQLVQSGAEVKKPGSSVKVSCKASGYTFTSYDINWVRQAPGQGLEWMGGIIPIFGTANYAQKFQGRVTITADESTGTAYMELSSLRSEDTAVYYCAIADGAGWFDPWGQGTLVTVSS VL: not shown | no binding | 0.3 | 0.5 | no binding | no binding | 0.77 | 75.7 | 0.0064 | 85000 |  |  | 
